Reference: paper PMC12416549 (2024)
Numbering of substitutions follows the chain as printed. Names and notes keep the numbering of the source.

Target: T1, TNFR1 (Homo sapiens, UniProt P19438)
T1 chain: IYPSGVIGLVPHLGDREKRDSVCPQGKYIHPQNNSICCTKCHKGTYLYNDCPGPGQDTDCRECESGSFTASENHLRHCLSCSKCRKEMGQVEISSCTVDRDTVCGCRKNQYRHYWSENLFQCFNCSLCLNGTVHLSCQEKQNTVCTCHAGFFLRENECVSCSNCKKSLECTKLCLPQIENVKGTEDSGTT
Experiment: yeast display SC50

B1: R38Y (designed binder)
chain: SMEEEVEKAAKEYEKKKKEAIEKHLEKLKAKDKEAAEYFLKELEEAAKEYAKDEAKTMSEEEAKRRAKKYKEKVLLSELSEEEQKEIKEAEEKLVRTILKYVEEAAK
apparent Kd (screen): 0.49 nM

B2: S80I (designed binder)
chain: B1 chain with Y38R, S80I
apparent Kd (screen): 1.69 nM

B3: K69P (designed binder)
chain: B1 chain with Y38R, K69P
apparent Kd (screen): 22.2 nM

B4: F39D (designed binder)
chain: B1 chain with Y38R, F39D
apparent Kd (screen): 7.07 nM

B5: E61Y (designed binder)
chain: B1 chain with Y38R, E61Y
apparent Kd (screen): 1.86 nM

B6: K31G (designed binder)
chain: B1 chain with K31G, Y38R
apparent Kd (screen): 0.653 nM

B7: K64S (designed binder)
chain: B1 chain with Y38R, K64S
apparent Kd (screen): 0.718 nM

B8: E7F (designed binder)
chain: B1 chain with E7F, Y38R
apparent Kd (screen): 20.2 nM

B9: K71I (designed binder)
chain: B1 chain with Y38R, K71I
apparent Kd (screen): 0.539 nM

B10: E49L (designed binder)
chain: B1 chain with Y38R, E49L
apparent Kd (screen): 10.4 nM

B11: K88P (designed binder)
chain: B1 chain with Y38R, K88P
apparent Kd (screen): 7.78 nM

B12: H24L (designed binder)
chain: B1 chain with H24L, Y38R
apparent Kd (screen): 0.539 nM

B13: L40Q (designed binder)
chain: B1 chain with Y38R, L40Q
apparent Kd (screen): 0.49 nM

B14: L28V (designed binder)
chain: B1 chain with L28V, Y38R
apparent Kd (screen): 0.79 nM

B15: E42I (designed binder)
chain: B1 chain with Y38R, E42I
apparent Kd (screen): 6.43 nM

B16: K17H (designed binder)
chain: B1 chain with K17H, Y38R
apparent Kd (screen): 0.869 nM

B17: E103Y (designed binder)
chain: B1 chain with Y38R, E103Y
apparent Kd (screen): 1.86 nM

B18: E19L (designed binder)
chain: B1 chain with E19L, Y38R
apparent Kd (screen): 0.49 nM

B19: E3K (designed binder)
chain: B1 chain with E3K, Y38R
apparent Kd (screen): 0.653 nM

B20: L76I (designed binder)
chain: B1 chain with Y38R, L76I
apparent Kd (screen): 1.16 nM

B21: R38G (designed binder)
chain: B1 chain with Y38G
apparent Kd (screen): 2.73 nM

B22: D53W (designed binder)
chain: B1 chain with Y38R, D53W
apparent Kd (screen): 10.4 nM

B23: E91M (designed binder)
chain: B1 chain with Y38R, E91M
apparent Kd (screen): 11.4 nM

B24: Y13L (designed binder)
chain: B1 chain with Y13L, Y38R
apparent Kd (screen): 1.86 nM

B25: K48E (designed binder)
chain: B1 chain with Y38R, K48E
apparent Kd (screen): 0.446 nM

B26: E34C (designed binder)
chain: B1 chain with E34C, Y38R
apparent Kd (screen): 1.16 nM

B27: T97Q (designed binder)
chain: B1 chain with Y38R, T97Q
apparent Kd (screen): 0.446 nM

B28: M2L (designed binder)
chain: B1 chain with M2L, Y38R
apparent Kd (screen): 1.05 nM

B29: R96V (designed binder)
chain: B1 chain with Y38R, R96V
apparent Kd (screen): 0.869 nM

B30: E104W (designed binder)
chain: B1 chain with Y38R, E104W
apparent Kd (screen): 0.869 nM

B31: E86P (designed binder)
chain: B1 chain with Y38R, E86P
apparent Kd (screen): 12.5 nM

B32: E4F (designed binder)
chain: B1 chain with E4F, Y38R
apparent Kd (screen): 1.69 nM

B33: E19C (designed binder)
chain: B1 chain with E19C, Y38R
apparent Kd (screen): 0.446 nM

B34: A46L (designed binder)
chain: B1 chain with Y38R, A46L
apparent Kd (screen): 12.5 nM

B35: E78T (designed binder)
chain: B1 chain with Y38R, E78T
apparent Kd (screen): 1.27 nM

B36: V6L (designed binder)
chain: B1 chain with V6L, Y38R
apparent Kd (screen): 3 nM

B37: E61M (designed binder)
chain: B1 chain with Y38R, E61M
apparent Kd (screen): 1.27 nM

B38: K71R (designed binder)
chain: B1 chain with Y38R, K71R
apparent Kd (screen): 0.593 nM

B39: A46K (designed binder)
chain: B1 chain with Y38R, A46K
apparent Kd (screen): 4.39 nM

B40: F39W (designed binder)
chain: B1 chain with Y38R, F39W
apparent Kd (screen): 1.05 nM

B41: E78C (designed binder)
chain: B1 chain with Y38R, E78C
apparent Kd (screen): 0.49 nM

B42: A105L (designed binder)
chain: B1 chain with Y38R, A105L
apparent Kd (screen): 1.86 nM

B43: I87L (designed binder)
chain: B1 chain with Y38R, I87L
apparent Kd (screen): 2.25 nM

B44: A55M (designed binder)
chain: B1 chain with Y38R, A55M
apparent Kd (screen): 0.446 nM

B45: L75D (designed binder)
chain: B1 chain with Y38R, L75D
apparent Kd (screen): 5.84 nM

B46: F39K (designed binder)
chain: B1 chain with Y38R, F39K
apparent Kd (screen): 8.56 nM

B47: A63W (designed binder)
chain: B1 chain with Y38R, A63W
apparent Kd (screen): 1.54 nM

B48: K18M (designed binder)
chain: B1 chain with K18M, Y38R
apparent Kd (screen): 1.05 nM

B49: E4W (designed binder)
chain: B1 chain with E4W, Y38R
apparent Kd (screen): 1.54 nM

B50: K29N (designed binder)
chain: B1 chain with K29N, Y38R
apparent Kd (screen): 0.539 nM

B51: E7T (designed binder)
chain: B1 chain with E7T, Y38R
apparent Kd (screen): 2.73 nM

B52: E83M (designed binder)
chain: B1 chain with Y38R, E83M
apparent Kd (screen): 0.446 nM

B53: E54H (designed binder)
chain: B1 chain with Y38R, E54H
apparent Kd (screen): 12.5 nM

B54: E7Y (designed binder)
chain: B1 chain with E7Y, Y38R
apparent Kd (screen): 7.07 nM

B55: T57A (designed binder)
chain: B1 chain with Y38R, T57A
apparent Kd (screen): 2.73 nM

B56: K16S (designed binder)
chain: B1 chain with K16S, Y38R
apparent Kd (screen): 3 nM

B57: E92D (designed binder)
chain: B1 chain with Y38R, E92D
apparent Kd (screen): 0.446 nM

B58: E61H (designed binder)
chain: B1 chain with Y38R, E61H
apparent Kd (screen): 1.54 nM

B59: R96N (designed binder)
chain: B1 chain with Y38R, R96N
apparent Kd (screen): 3 nM
